{
  "source": "patent US20240345090A1",
  "about": "“EARLY DETECTION OF INNATE IMMUNE DYSFUNCTION AND TREATMENT OF CONDITIONS ASSOCIATED THEREWITH” (UNIVERSITY OF FLORIDA RESEARCH FOUNDATION, INCORPORATED, priority 2021, published 2024)",
  "system": "CD14+ monocytes",
  "experiment": "Flow cytometry count of TH+ monocytes after in vitro treatment",
  "type": "cell-based, human",
  "details": "healthy donor monocytes, 2 million per well, 4 hours; TPA 100 ng/ml, TNFα 17 ng/ml, IL6 17 ng/ml, XPro1595 50 ng/ml; n=3 per group",
  "description": "Monocytes were isolated from total PBMCs prepared as described above^51 using negative selection (Biolegend, 480048) per manufacturer's instructions. Total PBMCs were Fc-blocked to reduce nonspecific binding, followed by incubations with biotin-conjugated antibody cocktail containing antibodies against all subsets except CD14 (negative selection), followed by incubation with magnetic-Avidin beads, allowing all subsets other than CD14+ monocytes to be bound to the magnet. Monocyte purity/enrichment was routinely verified to confirm that the final cell population was greater than 95% pure CD14+ cells (FIG. S2). CD14+ monocytes were collected from the supernatant fraction, washed, counted and density adjusted such that 2 million CD14+ monocytes were seeded per well (FIG. 5A) and treated for 4 hours with vehicle, TPA (100 ng/ml, Biolegend, 755802)^7, TNFα (17 ng/mL, Biolegend, 570102)^61, XPro1595 (50 ng/ml), or IL6 (17 ng/mL) in an ultra-low-adherence 6-well plate (Corning, 3471) to prevent adherence. Suspended cells from each treatment group were aspirated and placed in a 15 ml conical tube, with any remaining adherent cells detached by incubation with 700 uL Accumax solution for 3 minutes (Innovative Cell Technologies, AM105) and added to suspended cells. […]",
  "data": [
    {"molecule": "TPA: tissue plasminogen activator, positive control for increased monocyte TH expression (Biolegend, 755802) (protein, UniProt P00750 36-562, looked up) Tissue-type plasminogen …: SYQVICRDEKTQMIYQQHQSWLRPVLRSNRVEYCWCNSGRAQCHSVPVKSCSEPRCFNGGTCQQALYFSDFVCQCPEGFAGKCCEIDTRATCYEDQGISYRGTWSTAESGAECTNWNSSALAQKPYSGRRPDAIRLGLGNHNYCRNPDRDSKPWCYVFKAGKYSSEFCSTPACSEGNSDCYFGNGSAYRGTHSLTESGASCLPWNSMILIGKVYTAQNPSAQALGLGKHNYCRNPDGDAKPWCHVLKNRRLTWEYCDVPSCSTCGLRQYSQPQFRIKGGLFADIASHPWQAAIFAKHRRSPGERFLCGGILISSCWILSAAHCFQERFPPHHLTVILGRTYRVVPGEEEQKFEVEKYIVHKEFDDDTYDNDIALLQLKSDSSRCAQESSVVRTVCLPPADLQLPDWTECELSGYGKHEALSPFYSERLKEAHVRLYPSSRCTSQHLLNRTVTDNMLCAGDTRSGGPQANLHDACQGDSGGPLVCLNDGRMTLVGIISWGLGCGQKDVPGVYTKVTNYLDWIRDNMRP", "values": [
      {"measurement": "number of TH+ monocytes, fold change relative to vehicle", "value": "significant increases in TH-expressing monocytes relative to vehicle"}
    ]}
  ]
}
